B1: Azoarcus group I ribozyme (parent)
chain: GUGCCUUGCGCCGGGAAACCACGCAAGGGAUGGUGUCAAAUUCGGCGAAACCUAAGCGCCCGCCCGGGCGUAUGGCAACGCCGAGCCAAGCUUCGGCGCCUGCGCCGAUGAAGGUGUAGAGACUAGACGGCACCCACCUAAGGCAAACGCUAUGGUGAAGGCAUAGUCCAGGGAGUGGCGAAAGUCACACAAACCGG

Variants of: B1
Assay: reverse-splicing fitness (ratio to wild type); higher = more active; in vitro selection; Mg2+ level not given
Method in brief: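 An in vitro group I ribozyme library with randomized positions was T7-transcribed and gel-purified. In triplicate, 10 pmol RNA in EPPS pH 7.5 was reacted with 50 pmoles of a 30-nt RNA substrate for 1 h at 37 °C across several added MgCl2 levels (1–48 mM), then stopped with EDTA. Products were reverse transcribed from a substrate-complementary primer, PCR-amplified and sequenced (HiSeq 4000). Fitness is a variant's read proportion after selection over that before, normalised to wild type.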

First: C82A A120C A145C C150G U176C
Second: C82A A120C A145C C150G U176A
The reverse-splicing fitness of the first is higher: 0.0119 for the first, 0.0063 for the second.

Compared with C82A A120C A145G C150A U176G, C82A A120C A145G C150A U176A is higher in reverse-splicing fitness: 0.00982 for the first, 0.0137 for the second.

First: C82A A120C A145G C150A U176C
Second: C82A A111U A145G C169G U176G
The reverse-splicing fitness of the first is higher: 0.03 for the first, 0.00674 for the second.

Going from C82A A111U A145G C169G U176A to C82A A111U A145G C169G U176C, the reverse-splicing fitness rises from 0.023 to 0.0304.

First: C82A A111U A145U C169G U176A
Second: C82A A111U A145U C169G U176G
The reverse-splicing fitness of the first is higher: 0.0127 for the first, 0.00625 for the second.

Going from C82A A111U A145U C169G U176C to C82A A120C A145C C169G U176G, the reverse-splicing fitness falls from 0.0142 to 0.00536.

Going from C82A A120C A145C C169G U176C to C82A A120C A145C C169G U176A, the reverse-splicing fitness rises from 0.0239 to 0.031.

First: C82A A111U A145G C150U C169A U176A
Second: C82A A111U A145G C150U C169A U176G
The reverse-splicing fitness of the first is higher: 0.016 for the first, 0.00694 for the second.

First: C82A A111U A145G C150U C169A U176C
Second: C82A A111U A145U C150G C169G U176C
The reverse-splicing fitness of the first is higher: 0.0162 for the first, 0.00625 for the second.

Compared with C82A A111U A145U C150G C169G U176G, C82A A111U A145U C150G C169G U176A is higher in reverse-splicing fitness: 0.00651 for the first, 0.00742 for the second.

First: C82A A120C A145G C150G U176C
Second: C82A A120C A145G C150G U176A
The reverse-splicing fitness of the first is higher: 0.0148 for the first, 0.00881 for the second.

First: C82A A120C A145G C150G U176G
Second: C82A A120C A145C C150A C169G U176A
The reverse-splicing fitness of the first is lower: 0.00716 for the first, 0.032 for the second.

Compared with C82A A120C A145C C150A C169G U176G, C82A A120C A145C C150A C169G U176C is higher in reverse-splicing fitness: 0.00625 for the first, 0.0244 for the second.

First: C82A A120C A145C C150U C169G
Second: C82A A120C A145C C150U C169A
The reverse-splicing fitness of the first is lower: 0.00856 for the first, 0.00982 for the second.

Going from C82A A120C A145C C150U C169U to C82A A120C A145G C150A C169A, the reverse-splicing fitness falls from 0.0118 to 0.0111.

First: C82A A120C A145G C150A C169U
Second: C82A A120C A145G C150A C169G
The reverse-splicing fitness of the first is higher: 0.0123 for the first, 0.00977 for the second.

Compared with C82A A111U C150G C169U U176A, C82A A111U C150G C169U U176C is higher in reverse-splicing fitness: 0.00699 for the first, 0.0139 for the second.

First: C82A A111U C150G C169U U176G
Second: C82A A111U C150U C169G U176C
The reverse-splicing fitness of the first is lower: 0.00599 for the first, 0.0182 for the second.

Going from C82A A111U C150U C169G U176G to C82A A111U C150U C169G U176A, the reverse-splicing fitness rises from 0.00649 to 0.0151.

Compared with C82A A120C A145U C150A U176C, C82A A120C A145U C150A U176G is lower in reverse-splicing fitness: 0.0233 for the first, 0.00574 for the second.

Compared with C82A A120C A145U C150A U176A, C82A A111U C150G C169G U176C is lower in reverse-splicing fitness: 0.0143 for the first, 0.00482 for the second.

Going from C82A A111U C150G C169G U176A to C82A A111U C150G C169G U176G, the reverse-splicing fitness falls from 0.00782 to 0.00641.

Compared with C82A A120C A145C C150A U176G, C82A A120C A145C C150A U176A is higher in reverse-splicing fitness: 0.00599 for the first, 0.0107 for the second.

Compared with C82A A120C A145C C150A U176C, C82A A111U A145U C150U C169A U176G is lower in reverse-splicing fitness: 0.0155 for the first, 0.00727 for the second.

Compared with C82A A111U A145U C150U C169A U176C, C82A A111U A145U C150U C169A U176A is higher in reverse-splicing fitness: 0.0108 for the first, 0.0148 for the second.

Going from C82A A120C A145U to C82A A120C A145C, the reverse-splicing fitness falls from 0.135 to 0.124.

Going from C82A A120C A145G to C82A A111U C169G U176A, the reverse-splicing fitness falls from 0.136 to 0.0162.

Compared with C82A A111U C169G U176G, C82A A111U C169G U176C is higher in reverse-splicing fitness: 0.00658 for the first, 0.0258 for the second.

First: C82A A111U A145U C169A U176C
Second: C82A A111U A145U C169A U176G
The reverse-splicing fitness of the first is higher: 0.0114 for the first, 0.00655 for the second.

First: C82A A111U A145U C169A U176A
Second: C82A A111U C150G C169A U176A
The reverse-splicing fitness of the first is higher: 0.012 for the first, 0.0116 for the second.

Compared with C82A A111U C150G C169A U176G, C82A A111U C150G C169A U176C is higher in reverse-splicing fitness: 0.00757 for the first, 0.0105 for the second.

Compared with C82A A120C A145U C150A C169U U176C, C82A A120C A145U C150A C169U U176G is lower in reverse-splicing fitness: 0.0126 for the first, 0.00487 for the second.

First: C82A A120C A145U C150A C169U U176A
Second: C82A A111U C150A C169G U176G
The reverse-splicing fitness of the first is higher: 0.0151 for the first, 0.00794 for the second.

Compared with C82A A111U C150A C169G U176A, C82A A111U C150A C169G U176C is higher in reverse-splicing fitness: 0.0202 for the first, 0.0266 for the second.

Going from C82A A120C A145G C150U C169A to C82A A120C A145G C150U C169U, the reverse-splicing fitness rises from 0.0108 to 0.019.

Going from C82A A120C A145G C150U C169G to C82A A111U A145G C150U C169A, the reverse-splicing fitness rises from 0.00896 to 0.0109.

Going from C82A A111U A145G C150U C169U to C82A A111U A145G C150U C169G, the reverse-splicing fitness falls from 0.0139 to 0.00968.

Going from C82A A120C A145G U176C to C82A A120C A145G U176A, the reverse-splicing fitness falls from 0.0683 to 0.0426.

Compared with C82A A120C A145G U176G, C82A A111U A145G C150G U176C is higher in reverse-splicing fitness: 0.00861 for the first, 0.0188 for the second.

Compared with C82A A111U A145G C150G U176G, C82A A111U A145G C150G U176A is higher in reverse-splicing fitness: 0.00688 for the first, 0.00963 for the second.

First: C82A A111U C150G C169G
Second: C82A A111U C150G C169U
The reverse-splicing fitness of the first is lower: 0.00756 for the first, 0.0101 for the second.

First: C82A A111U C150G C169A
Second: C82A A111U A145U C150U C169G U176A
The reverse-splicing fitness of the first is lower: 0.00953 for the first, 0.0142 for the second.
